# System: F1*sub RNA substrate (template-directed ligation)
# Assay: fraction ligated after 30 min (ligated reads / total reads); higher = more ligase activity; sequences stand for … in GAGACCGCAACTGAAAAGTTGT…AGTTCTGCACGTAGAAGCAAAAGGC
# Conditions: 42 °C
# Procedure, shortened: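 Oligo-pool templates underwent PCR amplification, T7 transcription and gel purification to yield ribozyme variants. Gel-separated ligated and unligated bands were converted to complementary DNA with barcoded primers and sequenced on a MiSeq, keeping core bases of quality ≥20. The ratio of ligated reads to total reads gave the fraction ligated for every variant.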
row,Sequence,fraction ligated
1,TATCCTTGTCGAAGACATTTGGATGGGTTGA [3d1034],0.79
2,TATCCTTGTCGTAGACATTTGGATGGGTTGA [3d1047],0.768
3,TATCACTTGTCGTAAGACACTTTGTGGGTTA [3d2262],0.00904
4,ATCACTTTCGTAAGAACTTTGGATGGGTTGA [3d130],0.849
5,TATACTTGTCGTAAGAACTTTGGAGGGTTGA [3d907],0.032
6,TATCACTTGTCGAAGACACTTTGTGGGTTGA [3d1965],0.0368
7,TATCACTTGTCGTAAGCACTTGGTGGGTTGA [3d2130],0.0887
8,TTCACTTGTCGTAAGACACTTTGATGGGTTGA [2d41],0.553
9,TATCACTTGTCGTAAGAACTTTGGGGGTTGA [3d2172],0.0507
10,TATCATGTCGTAAGACACTTTGGATGGGTTA [3d1138],0.641
11,TACACTTGTCGTAAGACACTTTGGTGGGTTGA [2d64],0.153
12,ATCCTTGTCGAAGACACTTTGGATGGGTTGA [3d72],0.773
13,ATCACTTGTCTAAGACACTTTGATGGGTTGA [3d179],0.594
14,ATCACTTGTCGTAAGACCTTTGGAGGGTTGA [3d242],0.04
15,TATACTTGTCGTAAGACACTTTGATGGTTGA [3d935],0.0546
16,TATCACTTTCGTAAAACTTTGGATGGGTTGA [3d1519],0.823
17,TATCATGTCGTAAGACACTTTGGTGGGTTGA [3d1135],0.523
18,TATCACTTGCGTAGACACTTTGGATGGTTGA [3d1636],0.296
19,TATCACTTTCGTAAGACCTTTGGAGGGTTGA [3d1550],0.0285
20,TATCACTTGGTAAGACACTTTGGAGGGTTGA [3d1595],0.0523
21,ATCACTTGTGTAAGACACTTGGATGGGTTGA [3d164],0.719
22,TTCACTTGTGTAAGACCTTTGGATGGGTTGA [3d393],0.548
23,TATACTTGTCGTAAGAACTTTGGATGGGTTGA [2d80],0.786

row,Sequence,fraction ligated
1,TATCCTGTCGTAAGACACTTTGGATGGGTTGA [2d90],0.788
2,TACACTTGTCGTAAGACCTTTGGAGGGTTGA [3d703],0.0299
3,TATCACTTGCTAGACACTTTGGATGGGTTGA [3d1600],0.805
4,TATCATTGTCGTAAGACACTTTGGAGGTTGA [3d1286],0.0106
5,ATCACTTGTCGTAAGACCTTTGGATGGTTGA [3d243],0.712
6,TATCCTTGCGTAAGACACTTTGGTGGGTTGA [3d995],0.131
7,TATCCTTGTCGTAAGACCTTTGGATGGTTGA [3d1087],0.0339
8,TATCACTTGCTAAGACACTTTGGAGGGTTGA [3d1609],0.13
9,ATCACTTGTCGTAAGACATTTGGATGGTTGA [3d250],0.445
10,TATCACTTGCGTAAGACATTTGGATGGGTTG [3d1680],0.84
11,TCACTTGTCGTAAGACACTTTGGATGGTTGA [3d21],0.709
12,ATCACTTGTCGTAAGAATTTGGATGGGTTGA [3d231],0.757
13,TACACTTGTCGTAAGACACTTTGGAGGTTGA [3d731],0
14,TTCACTTGTCGTAAGACACTTTGGTGGGTTA [3d499],0.00711
15,TACACTGTCGTAGACACTTTGGATGGGTTGA [3d572],0.322
16,TATCACTTGTGTAAACACTTGGATGGGTTGA [3d1747],0.816
17,TATACTTGTCTAAGACACTTTGATGGGTTGA [3d851],0.719
18,TACACTTGTCTAAGCACTTTGGATGGGTTGA [3d635],0.142
19,ATCACTTGTCGTAAGAACTTTGGATGGGTTA [3d237],0.351
20,TTCACTTGTCGTAAGACTTTGGATGGGTTGA [3d452],0.752
21,TATCATTGTGTAAGACACTTTGATGGGTTGA [3d1181],0.308
22,TATCATTGTCGTAAGACACTGGATGGGTTGA [3d1269],0.783
23,TATCACTTGTCGTAAACACTGGATGGGTTGA [3d2081],0.787

row,Sequence,fraction ligated
1,TATCCTTGTCGTAAGACACTTTGGTGGGTTA [3d1112],0.0152
2,TATCACTTGTCGTAAGACATTGGATGGTTGA [3d2211],0.0757
3,TATCACTTGCTAAGACACTTTGATGGGTTGA [3d1607],0.738
4,TATCTTGTCGTAAGACACTTTGGATGGTTGA [3d755],0.155
5,TATCACTTGTGAAGACACTTTGGATGGGTTA [3d1729],0.823
6,TAACTTGCGTAAGACACTTTGGATGGGTTGA [3d511],0.085
7,TTCACTGTCGTAAGACACTTGGATGGGTTGA [3d348],0.762
8,TATCACTTGTCGTAAGACACTTATGGGTTGA [3d2238],0.0156
9,ATCACTTTCGTAAGACACTTTGGTGGGTTGA [3d135],0.00882
10,TCACTTGTCGTAAACACTTTGGATGGGTTGA [3d12],0.444
11,TATCACTTGTTAAGACACTTTGGATGGGTTGA [2d179],0.859
12,ATCCTTGTCTAAGACACTTTGGATGGGTTGA [3d71],0.716
13,TATCATTTCGAAGACACTTTGGATGGGTTGA [3d1142],0.812
14,TATCACTTGTGTAAGAACTTTGGTGGGTTGA [3d1767],0.0854
15,TATCCTTGTGTAAACACTTTGGATGGGTTGA [3d1003],0.8
16,TTCACTTTCGTAAGAACTTTGGATGGGTTGA [3d361],0.832
17,TATCCTGCGTAAGACACTTTGGATGGGTTGA [3d951],0.786
18,TTCATTGTCGTAGACACTTTGGATGGGTTGA [3d323],0.271
19,TATACTGTCGTAAGACACTTGGATGGGTTGA [3d789],0.803
20,TATCCTTGTCGTAAGAACTTTGGTGGGTTGA [3d1078],0.0718
21,TATCATTGTCGTAAGACACTTTGGATGGTTA [3d1289],0.203
22,TATCATTGTGTAAGACACTTTGGTGGGTTGA [3d1182],0.0386
23,TATCACTGTGTAAGAACTTTGGATGGGTTGA [3d1348],0.882

row,Sequence,fraction ligated
1,TATCATTGTCGTAAACACTTTGGTGGGTTGA [3d1232],0.0641
2,TTCACTTGTCGAAGACACTTTGGATGGGTTG [3d428],0.78
3,TTCACTGTCGTAGACACTTTGGATGGGTTGA [3d342],0.775
4,ATCACTTGCGTAAGACATTTGGATGGGTTGA [3d148],0.768
5,TTCACTTGTCGTAAGCACTTGGATGGGTTGA [3d455],0.231
6,TATCACTTGTCGTAAGCACTTTGATGGGTTA [3d2139],0.124
7,TATCACTTGTCGTAAGCATTTGGAGGGTTGA [3d2124],0.0316
8,TATCATTGTCGTAAGAATTTGGATGGGTTGA [3d1247],0.796
9,TATCACGTGTAAGACACTTTGGATGGGTTGA [3d1295],0.829
10,TATCATTTCGTAAGACACTTTGGTGGGTTGA [3d1151],0.1
11,TATCACTTGTCTGACACTTTGGATGGGTTGA [3d1823],0.77
12,TATCACTTGTGTAGCACTTTGGATGGGTTGA [3d1733],0.841
13,TATCACTTGTCTAAGACACTTTGGATGGTTA [3d1898],0.372
14,TATCACTTGTCGTAAACACTTTGGAGGTTGA [3d2098],0.0433
15,TATCACTTGTCGTAGACCTTTGGATGGGTTG [3d2027],0.777
16,TATCACTTGTCGAAGCACTTTGGATGGGTTG [3d1934],0.783
17,TATCACTTGTCGTAAGCACTTGGAGGGTTGA [3d2131],0.072
18,TATCACTTGCGAAGAACTTTGGATGGGTTGA [3d1616],0.842
19,TATCACGTCGTAAGCACTTTGGATGGGTTGA [3d1300],0.768
20,TATCATTGTCGTAAACACTTTGGATGGTTGA [3d1234],0.0592
21,TTACTTGTGTAAGACACTTTGGATGGGTTGA [3d282],0.207
22,TATCACTTGTCTAAGAACTTTGATGGGTTGA [3d1858],0.777
23,TATCACTTGTCTAAGACATTTGATGGGTTGA [3d1872],0.345

row,Sequence,fraction ligated
1,TATCACTTGTCGTAAGACATTGGATGGGTTA [3d2212],0.78
2,TATCACTTGTGTAAGACATTTGGTGGGTTGA [3d1781],0.0614
3,TATCACTTGTCGTAAGACCTTGGATGGGTTG [3d2189],0.79
4,TACACTTGTCGTAAGACACTTGGATGGGTTGA [2d62],0.183
5,TTCACTTGTCGAAGCACTTTGGATGGGTTGA [3d418],0.287
6,TTACTTGTCGTAAGACACTTTGGATGGGTTA [3d296],0.0531
7,TATCACTTGCGTAAGACACTTGGATGGGTTA [3d1686],0.558
8,TATCACTTGTCGTAGACATTGGATGGGTTGA [3d2028],0.815
9,TATCACTTGTCGTAAAACTTTGGTGGGTTGA [3d2062],0.0841
10,TATCACTGTCGAAGAACTTTGGATGGGTTGA [3d1375],0.846
11,TATCACTTGTCGTAGACACTTTGGAGGGTTGA [2d230],0.167
12,ATCATTGTCGTAAGACACTTTGGATGGGTTGA [2d5],0.759
13,TATCACTTGTCGTAAGCACTTTGGATGGGTTG [2d253],0.771
14,TATCACTTGTCGAAGACATTGGATGGGTTGA [3d1950],0.787
15,ATCACTTGTCGTAAGACATTTGGATGGGTTG [3d252],0.739
16,TATCATGTCGTAGACACTTTGGATGGGTTGA [3d1127],0.817
17,TATCCTTGCGTAAGACACTTTGGAGGGTTGA [3d996],0.0215
18,TACACTGTCGTAAGACACTTTGGATGGGTTA [3d583],0.069
19,TATCATTGTCTAAGCACTTTGGATGGGTTGA [3d1190],0.765
20,ATCACTTGTCGTAAGACATTGGATGGGTTGA [3d246],0.739

# Source: the supplement of paper PMC6755084
